According to article PMC11392403:

Target: recombinant Fasciola hepatica enolase (rFhENO) (Fasciola hepatica) (UniProt Q27655)
Test: SEC; Superdex 75 10/300 GL, 0.4 mL/min, 100 μg rFhENO injected; markers carbonic anhydrase 29 kDa, BSA 66 kDa, alcohol dehydrogenase 150 kDa; dimer to monomers

## recombinant Fasciola hepatica enolase (rFhENO) (from UniProt Q27655 1-431) (enzyme)
  percent of the protein eluting in the homodimeric form: 86.5%
  stoichiometry N: 2
